In paper PMC2835468 (Matrix biology : journal of the International Society for …, 2009) one finds Ki data, which are given here for one molecule.

What all share (experiment): enzyme inhibition kinetics
Assay [1] addresses T1, ADAMTS5-2 (human ADAMTS-5 deletion mutant, C-terminal FLAG-tag) (human, UniProt Q9UNA0 262-874).
T1 sequence (looked up): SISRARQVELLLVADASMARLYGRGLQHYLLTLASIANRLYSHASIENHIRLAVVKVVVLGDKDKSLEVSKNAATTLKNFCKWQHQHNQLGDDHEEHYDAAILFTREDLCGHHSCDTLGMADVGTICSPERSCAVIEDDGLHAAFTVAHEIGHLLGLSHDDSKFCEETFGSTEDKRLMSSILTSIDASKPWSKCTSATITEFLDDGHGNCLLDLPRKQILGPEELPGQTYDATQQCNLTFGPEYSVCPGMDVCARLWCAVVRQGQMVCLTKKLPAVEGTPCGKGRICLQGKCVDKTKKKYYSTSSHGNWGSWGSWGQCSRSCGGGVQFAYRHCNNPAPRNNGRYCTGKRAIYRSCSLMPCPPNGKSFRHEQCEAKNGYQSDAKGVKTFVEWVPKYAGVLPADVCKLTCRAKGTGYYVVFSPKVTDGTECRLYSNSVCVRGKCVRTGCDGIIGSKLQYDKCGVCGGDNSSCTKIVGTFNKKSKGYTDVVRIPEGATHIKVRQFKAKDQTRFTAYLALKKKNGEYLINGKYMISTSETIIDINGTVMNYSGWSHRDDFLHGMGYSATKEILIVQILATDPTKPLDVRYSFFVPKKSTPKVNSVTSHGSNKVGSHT

Assay [2] has as its target T2, ADAMTS5-5 (human ADAMTS-5, catalytic and disintegrin domain, C-terminal FLAG-tag) (human, UniProt Q9UNA0 262-566).
T2 sequence (looked up): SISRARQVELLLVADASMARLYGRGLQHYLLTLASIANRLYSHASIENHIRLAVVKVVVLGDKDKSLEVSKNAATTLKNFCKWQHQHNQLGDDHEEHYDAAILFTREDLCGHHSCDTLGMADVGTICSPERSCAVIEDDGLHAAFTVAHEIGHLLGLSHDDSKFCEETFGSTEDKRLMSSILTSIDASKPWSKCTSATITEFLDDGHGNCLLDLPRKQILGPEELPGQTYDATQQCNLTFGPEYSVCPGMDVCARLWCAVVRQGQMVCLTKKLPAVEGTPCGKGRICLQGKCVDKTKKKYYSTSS

Assay [3] has as its target T3, ADAMTS5-1 (full-length human ADAMTS-5, C-terminal FLAG-tag) (human, UniProt Q9UNA0 262-930).
T3 sequence (looked up): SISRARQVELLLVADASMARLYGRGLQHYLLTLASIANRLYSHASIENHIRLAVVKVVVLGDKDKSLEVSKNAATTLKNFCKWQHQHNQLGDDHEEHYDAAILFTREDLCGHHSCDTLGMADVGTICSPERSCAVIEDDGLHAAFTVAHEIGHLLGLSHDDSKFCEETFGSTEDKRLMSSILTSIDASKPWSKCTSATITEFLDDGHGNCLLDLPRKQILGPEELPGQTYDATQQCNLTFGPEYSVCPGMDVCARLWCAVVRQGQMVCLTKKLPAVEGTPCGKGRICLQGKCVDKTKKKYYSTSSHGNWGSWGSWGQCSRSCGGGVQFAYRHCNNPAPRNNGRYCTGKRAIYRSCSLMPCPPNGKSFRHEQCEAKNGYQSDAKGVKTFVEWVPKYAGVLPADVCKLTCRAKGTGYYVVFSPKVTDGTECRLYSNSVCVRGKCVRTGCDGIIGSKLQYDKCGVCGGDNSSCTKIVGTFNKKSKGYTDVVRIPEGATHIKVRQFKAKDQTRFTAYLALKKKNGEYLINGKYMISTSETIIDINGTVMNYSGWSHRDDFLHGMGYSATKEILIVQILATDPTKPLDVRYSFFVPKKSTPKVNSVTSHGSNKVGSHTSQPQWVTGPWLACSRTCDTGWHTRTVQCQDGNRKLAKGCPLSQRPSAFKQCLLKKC

The target in assay [4] is T4, ADAMTS5-4 (human ADAMTS-5 deletion mutant, C-terminal FLAG-tag) (human, UniProt Q9UNA0 262-622).
T4 sequence (looked up): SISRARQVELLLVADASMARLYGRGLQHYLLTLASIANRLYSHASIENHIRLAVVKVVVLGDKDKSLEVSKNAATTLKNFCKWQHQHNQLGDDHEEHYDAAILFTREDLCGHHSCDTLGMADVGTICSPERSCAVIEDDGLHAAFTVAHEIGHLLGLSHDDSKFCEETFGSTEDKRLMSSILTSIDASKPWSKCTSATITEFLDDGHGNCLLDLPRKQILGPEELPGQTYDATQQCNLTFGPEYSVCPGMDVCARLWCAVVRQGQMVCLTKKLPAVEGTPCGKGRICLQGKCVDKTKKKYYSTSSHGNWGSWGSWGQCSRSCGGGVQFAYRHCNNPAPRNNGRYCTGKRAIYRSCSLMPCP

B1: FLAG-tagged glycosylated human TIMP-3 (full-length tissue inhibitor of metalloproteinases 3), expressed in HEK293 (natural protein, UniProt P35625 24-211, looked up)
chain: CTCSPSHPQDAFCNSDIVIRAKVVGKKLVKEGPFGTLVYTIKQMKMYRGFTKMPHVQYIHTEASESLCGLKLEVNKYQYLLTGRVYDGKMYTGLCNFVERWDQLTLSQRKGLNYRYHLGCNCKIKSCYYLPCFVTSKNECLWTDMLSNFGYPGYQSKHYACIRQKGGYCSWYRGWAPPDKSIINATDP
modifications: glycosylated (only the 27 kDa glycosylated form remained after purification; single N-glycosylation site in the C-terminal domain)
Regarding B1, the Ki in assay [1] worked out at 0.72 nM; in assay [2], 1.17 nM; in assay [3], 0.63 nM; in assay [4], 1.13 nM.

The term Ki denotes the dissociation constant of the complex between target and ligand, obtained from inhibition or displacement.
